5 molecules from paper PMC3286403 can be followed below.

Values joined by “and” are separate entries in the source; they are usually repeats but may differ in a detail not shown here. Equal values may be shown once. Read-outs that look alike come from different tables or passages of the source.

Test [1] deals with untagged HIV-1 integrase Y194E (HIV-1). The experiment in a line: SEC; 2.5 μM untagged IN on Superdex 200 10/300 GL; 50 mM HEPES pH 7.4, 750 mM NaCl, 10% glycerol; calibrated with protein standards; no DNA. (In gel filtration, larger molecules generally elute earlier.)
Test [2] has as its target untagged HIV-1 integrase wild type (HIV-1). Described as above.
In test [3] the target is His6-tagged HIV-1 integrase Q168L (HIV-1). Briefly: AlphaScreen or HTRF; HTRF; His-IN 80 nM, GST-LEDGF/p75 or GST-TNPO3 5 nM, anti-GST-Europium Cryptate and anti-His-XL665; 25 mM Hepes pH 7.3, 150 mM NaCl, 2 mM MgCl2, 0.1% BSA, 1 mM DTT; read 2 h after incubation; signal as percent of IN WT ΔF. A general note: In Alpha technology, singlet oxygen from a donor bead excites a nearby acceptor bead.

In test [4] the target is His6-tagged HIV-1 integrase W131A (HIV-1). The description is as above.
Test [5] concerns the target His6-tagged HIV-1 integrase Y194E (HIV-1). The test is described as above.
The target in test [6] is His-tagged HIV-1 integrase Y194A (HIV-1). The test is described as above.
Test [7] concerns the target His6-tagged HIV-1 integrase K188Q (HIV-1). The description is as above.
For test [8], the target named is untagged HIV-1 integrase W131A (HIV-1). The experiment in a line: SEC; 2.5 μM untagged IN on Superdex 200 10/300 GL; 50 mM HEPES pH 7.4, 750 mM NaCl, 10% glycerol; calibrated with protein standards; no DNA.
The target of test [9] is His6-tagged HIV-1 integrase Q168L (HIV-1). Briefly: AlphaScreen or HTRF; HTRF; His-IN 80 nM, GST-LEDGF/p75 or GST-TNPO3 5 nM, anti-GST-Europium Cryptate and anti-His-XL665; 25 mM Hepes pH 7.3, 150 mM NaCl, 2 mM MgCl2, 0.1% BSA, 1 mM DTT; read 2 h after incubation; signal as percent of IN WT ΔF. The source holds these as a separate data set.
The target of test [10] is His6-tagged HIV-1 integrase Y194F (HIV-1). The description is as above.
The target of test [11] is His6-tagged HIV-1 integrase W131A (HIV-1). The test is described as above. The source holds these as a separate data set.
The target in test [12] is His6-tagged HIV-1 integrase Y194E (HIV-1). Described as above. The source holds these as a separate data set.

What is called stoichiometry N is a count of units in the complex or per binding partner. For untagged HIV-1 integrase Y194E (enzyme), the stoichiometry N in test [1] was determined as 4.

Turning to “untagged HIV-1 integrase wild type (enzyme)”, the stoichiometry N in test [2] is 4 and 2.

Turning to “GST-LEDGF/p75 full length (from UniProt O75475 1-530) (natural protein)”, the percent of IN WT interaction (HTRF) was 16.3% in test [3] and 9.3% in test [4]. Besides, the percent decrease of binding against IN WT (HTRF) in test [5] amounted to 26%; in test [6] it was 27%; in [7], 64.9%.

Take untagged HIV-1 integrase W131A (enzyme): in test [8], the stoichiometry N is 4 and 2.

B1: GST-TNPO3 full length (natural protein)
chain: MEGAKPTLQLVYQAVQALYHDPDPSGKERASFWLGELQRSVHAWEISDQLLQIRQDVESCYFAAQTMKMKIQTSFYELPTDSHASLRDSLLTHIQNLKDLSPVIVTQLALAIADLALQMPSWKGCVQTLVEKYSNDVTSLPFLLEILTVLPEEVHSRSLRIGANRRTEIIEDLAFYSSTVVSLLMTCVEKAGTDEKMLMKVFRCLGSWFNLGVLDSNFMANNKLLALLFEVLQQDKTSSNLHEAASDCVCSALYAIENVETNLPLAMQLFQGVLTLETAYHMAVAREDLDKVLNYCRIFTELCETFLEKIVCTPGQGLGDLRTLELLLICAGHPQYEVVEISFNFWYRLGEHLYKTNDEVIHGIFKAYIQRLLHALARHCQLEPDHEGVPEETDDFGEFRMRVSDLVKDLIFLIGSMECFAQLYSTLKEGNPPWEVTEAVLFIMAAIAKSVDPENNPTLVEVLEGVVRLPETVHTAVRYTSIELVGEMSEVVDRNPQFLDPVLGYLMKGLCEKPLASAAAKAIHNICSVCRDHMAQHFNGLLEIARSLDSFLLSPEAAVGLLKGTALVLARLPLDKITECLSELCSVQVMALKKLLSQEPSNGISSDPTVFLDRLAVIFRHTNPIVENGQTHPCQKVIQEIWPVLSETLNKHRADNRIVERCCRCLRFAVRCVGKGSAALLQPLVTQMVNVYHVHQHSCFLYLGSILVDEYGMEEGCRQGLLDMLQALCIPTFQLLEQQNGLQNHPDTVDDLFRLATRFIQRSPVTLLRSQVVIPILQWAIASTTLDHRDANCSVMRFLRDLIHTGVANDHEEDFELRKELIGQVMNQLGQQLVSQLLHTCCFCLPPYTLPDVAEVLWEIMQVDRPTFCRWLENSLKGLPKETTVGAVTVTHKQLTDFHKQVTSAEECKQVCWALRDFTRLFR
Take B1: the percent of IN WT (HTRF) in test [9] came out at 45%; in test [11], 49%. Moreover, the values for the percent decrease of binding against IN WT (HTRF) in test [10] and in test [12] were 14.4% and 23.5%, respectively.
